This is an account of results in patent US20050113293A1.

[ ]: non-standard residue; d: D form. Hyp = O=C(O)[C@@H]1C[C@@H](O)CN1

Assay [1] deals with binding site for [125I]AAP10 on intact CHO cells (AAP receptor). Put plainly: cell-based or functional assay.
For assay [2] the target is unchanged. Put plainly: in situ displacement of [125I]AAP10 on intact CHO cells. (In general: In a radioligand displacement assay an active substance lowers the binding of a labelled ligand.)
Assay [3] has as its target binding site for [125I]AAP10 in murine heart tissue preparations (AAP receptor) (mouse). The assay is described as follows: displacement of 0.8 nM [125I]AAP10, murine heart filtrate.
Assay [4] shares this target. Put plainly: displacement of 0.8 nM [125I]AAP10, murine heart membranes.

Turning to “Ac-D-Tyr-D-Pro-D-4Hyp-Gly-D-Ala-Gly-NH2 (Compound 2) (peptide)”, the Inhibition of forskoline stimulated cAMP formation in CHO cells, EC50 in assay [1] was 6.2 nM. The values for the IC50 in assay [2], in assay [3] and in assay [4] were 0.5 nM, 3.6 nM and 1.2 nM, respectively.
“Ac-D-Tyr(3,5-di-I)-D-Pro-D-Hyp-Gly-D-Ala-Gly-NH2 (Compound 24) (peptide)”: in assay [2], the IC50 (commonly the concentration needed to halve the response being measured) was 65 nM.
Same read-out and setting: the same measure for {ASAL(mono-iodo)}-P[Hyp]GAG-NH2 [ASAL(mono-iodo)-Pro-Hyp-Gly-Ala-Gly-NH2 (Compound 32)]: 0.5 nM.

B1: H-Gly-Pro-Hyp-Gly-Ala-Gly-OH (AAP) (peptide)
peptide: H-GP[Hyp]GAG-OH
SMILES: C[C@H](NC(=O)CNC(=O)[C@@H]1C[C@@H](O)CN1C(=O)[C@@H]1CCCN1C(=O)CN)C(=O)NCC(=O)O
The molecule B1 came in with an Inhibition of forskoline stimulated cAMP formation in CHO cells, EC50 in assay [1] of 53 nM. Also, the IC50 in assay [2] amounted to 0.8 nM; in assay [3], 1.2 nM.
The matching figures for H-GAG[Hyp]PY-NH2 [H-Gly-Ala-Gly-Hyp-Pro-Tyr-NH2 (AAP10)]: 11 nM, 130 nM and 1.2 nM.
